Reference: paper PMC5056641
pKi: −log10 of the molar value.

Biological target: His-CLK1(ΔN) (mouse)
Experiment: kinetic competition

Chain of SRSF1 (His-tagged) (Q07955 whole entry): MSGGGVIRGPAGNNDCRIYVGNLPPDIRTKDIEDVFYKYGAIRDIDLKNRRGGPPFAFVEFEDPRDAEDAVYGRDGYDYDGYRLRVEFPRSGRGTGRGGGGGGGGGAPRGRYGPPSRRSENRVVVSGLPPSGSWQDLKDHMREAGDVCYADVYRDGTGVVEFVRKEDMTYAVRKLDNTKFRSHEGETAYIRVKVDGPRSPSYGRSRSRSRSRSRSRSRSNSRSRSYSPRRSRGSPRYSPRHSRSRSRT

pKi: 6.52
Substance: SRSF1 (His-tagged) (from UniProt Q07955 1-248) (natural protein)
